This note sets out measurements from patent US20060154859A1.

The target in the test is mouse LEPRb (mouse), P48356. In words: cell-based or functional assay.
mouse LEPRb (mouse), P48356, sequence (P48356 22-1162): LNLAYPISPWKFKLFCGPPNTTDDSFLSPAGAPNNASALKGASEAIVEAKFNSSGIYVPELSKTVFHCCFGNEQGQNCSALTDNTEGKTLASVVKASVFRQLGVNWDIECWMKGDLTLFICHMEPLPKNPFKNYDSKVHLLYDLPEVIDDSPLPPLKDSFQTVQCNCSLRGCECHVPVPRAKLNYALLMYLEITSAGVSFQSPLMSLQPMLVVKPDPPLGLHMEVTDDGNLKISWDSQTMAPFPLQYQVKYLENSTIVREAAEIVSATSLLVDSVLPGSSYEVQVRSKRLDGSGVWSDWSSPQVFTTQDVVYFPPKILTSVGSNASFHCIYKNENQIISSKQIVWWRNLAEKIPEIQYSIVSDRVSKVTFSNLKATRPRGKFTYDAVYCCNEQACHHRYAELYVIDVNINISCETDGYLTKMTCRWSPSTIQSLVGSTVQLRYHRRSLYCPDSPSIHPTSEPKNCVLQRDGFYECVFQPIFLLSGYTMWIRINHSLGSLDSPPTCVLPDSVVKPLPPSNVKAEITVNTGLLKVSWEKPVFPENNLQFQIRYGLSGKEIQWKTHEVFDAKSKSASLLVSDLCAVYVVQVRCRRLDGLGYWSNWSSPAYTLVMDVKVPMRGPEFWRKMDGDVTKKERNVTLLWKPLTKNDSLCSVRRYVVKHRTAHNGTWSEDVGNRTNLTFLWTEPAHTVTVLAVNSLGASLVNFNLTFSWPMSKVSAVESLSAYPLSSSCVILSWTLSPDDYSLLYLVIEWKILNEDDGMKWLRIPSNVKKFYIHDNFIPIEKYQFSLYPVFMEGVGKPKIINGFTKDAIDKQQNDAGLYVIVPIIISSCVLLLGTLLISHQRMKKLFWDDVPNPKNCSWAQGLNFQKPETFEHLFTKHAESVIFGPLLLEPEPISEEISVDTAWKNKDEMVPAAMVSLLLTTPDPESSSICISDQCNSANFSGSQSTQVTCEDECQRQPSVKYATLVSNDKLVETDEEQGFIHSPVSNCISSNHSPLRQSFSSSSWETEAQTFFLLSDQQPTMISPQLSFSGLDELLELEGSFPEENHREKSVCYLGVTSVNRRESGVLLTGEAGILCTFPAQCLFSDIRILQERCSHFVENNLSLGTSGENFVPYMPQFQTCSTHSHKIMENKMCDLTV

B1: human leptin L39A/D40A/F41A/I42A mutant, P41159 22-167 (ligand)
chain: VPIQKVQDDTKTLIKTIVTRINDISHTQSVSSKQKVTGAAAAPGLHPILTLSKMDQTLAVYQQILTSMPSRNVIRISNDLENLRDLLHVLAFSKSCHLPWASGLETLDSLGGVLEASGYSTEVVALSRLQGSLQDMLWQLDLSPGC
As for B1, the inhibition of leptin-inducible transactivation of luciferase reporting gene in CHO cells transiently transfected with leptin receptor, stimulated with 6.25 nM human leptin was determined as 10 nM.
